Tests used:
[1] = target: NMC-P1 peptide (SEQ ID NO:1) (Homo sapiens, UniProt Q00987); assay: Peptide antigen binding competition ELISA; details: mAb pre-incubated with peptide 1 hour at room temperature; FIG. 1D
Method: Peptide-ELISA Methodology: 5 μg/ml of NMC-P1, NMC-P2 or NMC-P3 peptide antigen was dried onto a 96-well ELISA plate overnight. Plates were then blocked with 5% BSA in 1× phosphate-buffered saline (PBS) (100 ? /well) for 2 hours at room temperature. Microplate wells were then washed 5 times with 300 ? of ice cold 1× PBS. Appropriate dilutions of monoclonal antibodies NMC-103, NMC-204 or NMC-303 in 1% bovine serum albumin (BSA) in PBS solution were then incubated with their corresponding peptides (NMC-P1, NMC-P2 or NMC-P3, respectively) at room temperature. After 2 hours, wells were washed 5 times with 300 ? ? ice-cold PBS/well and 100 ? secondary antibody (HRP-labeled Goat anti-Mouse F(ab′)2 H&L cross-adsorbed secondary antibody (HRP-GaM F(ab′)2), ThermoFisher, Cat. No. A24524) diluted 1:2500 to 1:5000 in PBS-1% BSA solution were added and the incubation continued at room temperature. After 1 hour, the wells were washed again 5 times with 200 ? of ice-cold PBS and 50 μiL of the TMB Substrate Solution (1-StepTM Ultra TMB-ELISA, ThermoFisher, Cat. No. 34028) were added to each well and color was allowed to develop for 30 minutes at room temperature. The reaction was stopped by addition of 50 μ ? ? of stop solution (ThermoFisher, Cat. No. SSO4) to each well and absorbance of each well was read immediately for optical density (OD) at 450 nm. […]

[2] = target: NMC-P3 peptide (SEQ ID NO:3), amino acids 475-491 of HDM2 (Homo sapiens, UniProt Q00987); assay: Peptide-ELISA, NMC-P3 peptide; format: binding; details: 5 μg/ml peptide dried on plate; OD 450 nm
Method: Peptide-ELISA Methodology: 5 μg/ml of NMC-P1, NMC-P2 or NMC-P3 peptide antigen was dried onto a 96-well ELISA plate overnight. Plates were then blocked with 5% BSA in 1× phosphate-buffered saline (PBS) (100 ? /well) for 2 hours at room temperature. Microplate wells were then washed 5 times with 300 ? of ice cold 1× PBS. Appropriate dilutions of monoclonal antibodies NMC-103, NMC-204 or NMC-303 in 1% bovine serum albumin (BSA) in PBS solution were then incubated with their corresponding peptides (NMC-P1, NMC-P2 or NMC-P3, respectively) at room temperature. After 2 hours, wells were washed 5 times with 300 ? ? ice-cold PBS/well and 100 ? secondary antibody (HRP-labeled Goat anti-Mouse F(ab′)2 H&L cross-adsorbed secondary antibody (HRP-GaM F(ab′)2), ThermoFisher, Cat. No. A24524) diluted 1:2500 to 1:5000 in PBS-1% BSA solution were added and the incubation continued at room temperature. After 1 hour, the wells were washed again 5 times with 200 ? of ice-cold PBS and 50 μiL of the TMB Substrate Solution (1-StepTM Ultra TMB-ELISA, ThermoFisher, Cat. No. 34028) were added to each well and color was allowed to develop for 30 minutes at room temperature. The reaction was stopped by addition of 50 μ ? ? of stop solution (ThermoFisher, Cat. No. SSO4) to each well and absorbance of each well was read immediately for optical density (OD) at 450 nm.

binding to NMC-P3 peptide (peptide-ELISA) [2]	Molecule	binding of mAb to NMC-P1 peptide on the plate after pre-incubation with NMC-P1 peptide [1]	binding of mAb to NMC-P1 peptide on the plate after pre-incubation with NMC-P2 or NMC-P3 [1]
	NMC-103: mouse monoclonal antibody, IgG1 isotype, binds NMC-P1 (SEQ ID NO:1); VH SEQ ID NO:36, VL SEQ ID NO:37 (antibody, V domains shown, mAb NMC-103 Heavy Chain Variable Region; mAb NMC-103 Light Chain Variable Region) VH: EVQLQESGGGLVQPGGSLRLSCTTSGFTFTHYYMSWVRQPPGKALEWLGFIRNKAKGYTAEYSASVKGRFTISRDNSQSILYLQMNTLRPEDSATYYCARDIGDNWGQGTLVTVSS VL: DIVMTQAAFSNPVTLGTSASISCRSSKNLLHSNGITYLYWYLQRPGQSPQLLISRVSNLASGVPNRFSGSESGTDFTLRISRVEAEDVGVYFCAQLLELPYTFGGGTKLEIK	abolished the binding	did not affect the binding
did not bind	NMC-204: mouse monoclonal antibody, IgG3 isotype, binds NMC-P2 (SEQ ID NO:2); VH SEQ ID NO:38, VL SEQ ID NO:39 (antibody, V domains shown, mAb NMC-204 Heavy Chain Variable Region; mAb NMC-204 Light Chain Variable Region) VH: EVQLQESGSVLVRPGASVKLSCKASGDTLSGSWMHWAMQRPGQGLEWIGEIHLNRGTTNYNEKFKGKATVTVDTSSSTAYVDLSSLTSEDSAVYYCARSPGFAYWGQGTLVTVSA VL: GIVMTQAAPSVPVTPGESVSISCRSSKSLLHSNGNSYLYWFLQRPGQSPQLLIYRMSNLASGVPDRFSGSGSGTAFTLRITRVEAEDVGVYYCMQHLEYPFTFGSGTKLEIK		

Source: patent US11407840B2, “Antibodies to M(H)DM2/4 and their use in diagnosing and treating cancer” (NomoCan Pharmaceuticals LLC, priority 2017, dated 2022)
